# FireProtDB (doi:10.1021/bi0015717)
# Values joined by “and” are separate entries in the source; they are usually repeats but may differ in a detail not shown here. Equal values may be shown once.
# B1: Lysozyme C, P61626 (parent)
# chain: MKALIVLGLVLLSVTVQGKVFERCELARTLKRLGMDGYRGISLANWMCLAKWESGYNTRATNYNAGDRSTDYGIFQINSRYWCNDGKTPGAVNACHLSCSALLQDNIADAVACAKRVVRDPQGIRAWVAWRNRCQNRDVRQYVQGCGV
# Variants of: B1
# Settings: Homo sapiens; pH 2.5; Thermal; DSC; glycine-HCl 0.05 M; reversible: yes; structure 1LZ1; whole UniProt chain shown
Variant,Tm [°C],unfolding enthalpy (calorimetric) [kcal/mol]
MKALIVLGLVLLSVTVQGKVFERCELARTLKRLGMDGYRGISLANWMCLAKWESGYNTRATNYNAGDRSTDYGIFQINSRYWCNDGKTPGAVNACHLSCSALLQDNIADAVACAKRVVRDPQGIRAWLAWRNRCQNRDVRQYVQGCGV,61.9,105
MKALIVLGLVLLSVTVQGKVFERCELARTLKRLGMDGYRGISLANWMCLAKWESGYNTRATNYNAGDRSTDYGIFQINSRYWCNDGKTPGALNACHLSCSALLQDNIADAVACAKRVVRDPQGIRAWVAWRNRCQNRDVRQYVQGCGV,62.4,100

# Same assay, conditions: Homo sapiens; pH 2.7; 64.9 °C; Thermal; DSC; glycine-HCl 0.05 M; reversible: yes; structure 1LZ1; whole UniProt chain shown
row,Variant,ddG of mutation (higher = less stable) [kcal/mol]
1,MKALIVLGLVLLSVTVQGKVFERCELARTLKRLGMDGYRGISLANWMCLAKWESGYNTRATNYNAGDRSTDYGIFQINSRYWCNDGKTPGAVNACHLSCSALLQDNIADAVACAKRVVRDPQGIRAWLAWRNRCQNRDVRQYVQGCGV,-0.07
2,MKALIVLGLVLLSVTVQGKVFERCELARTLKRLGMDGYRGISLANWMCLAKWESGYNTRATNYNAGDRSTDYGIFQINSRYWCNDGKTPGALNACHLSCSALLQDNIADAVACAKRVVRDPQGIRAWVAWRNRCQNRDVRQYVQGCGV,-0.19
3,MKALIVLGLVLLSVTVQGKVFERCELARTLKRLGMDGYRGISLANWMCLAKWESGYNTRATNYNAGDRSTDYGIFQINSRYWCNDGKTPGAGNACHLSCSALLQDNIADAVACAKRVVRDPQGIRAWVAWRNRCQNRDVRQYVQGCGV,0.22

# Same assay, conditions: Homo sapiens; pH 2.7; Thermal; DSC; glycine-HCl 0.05 M; reversible: yes; structure 1LZ1; whole UniProt chain shown
Variant,Tm,"change of melting temperature, mutant - wild type (higher = more stable) [°C]",heat capacity change of unfolding [kcal/mol/K],unfolding enthalpy (calorimetric)
MKALIVLGLVLLSVTVQGKVFERCELARTLKRLGMDGYRGISLANWMCLAKWESGYNTRATNYNAGDRSTDYGIFQINSRYWCNDGKTPGAVNACHLSCSALLQDNIADAVACAKRVVRDPQGIRAWLAWRNRCQNRDVRQYVQGCGV,65 °C and 65.1 °C and 64.9 °C,0.2,1.29,108 kcal/mol and 109 kcal/mol
MKALIVLGLVLLSVTVQGKVFERCELARTLKRLGMDGYRGISLANWMCLAKWESGYNTRATNYNAGDRSTDYGIFQINSRYWCNDGKTPGAVNACHLSCSALLQDNIADAVACAKRVVRDPQGIRAWMAWRNRCQNRDVRQYVQGCGV,66.3 °C and 66.5 °C and 64.9 °C,1.6,1.41,114 kcal/mol and 112 kcal/mol
MKALIVLGLVLLSVTVQGKVFERCELARTLKRLGMDGYRGISLANWMCLAKWESGYNTRATNYNAGDRSTDYGIFQINSRYWCNDGKTPGALNACHLSCSALLQDNIADAVACAKRVVRDPQGIRAWVAWRNRCQNRDVRQYVQGCGV,65.3 °C and 65.5 °C and 64.9 °C,0.6,1.27,104 kcal/mol and 103 kcal/mol
MKALIVLGLVLLSVTVQGKVFERCELARTLKRLGMDGYRGISLANWMCLAKWESGYNTRATNYNAGDRSTDYGIFQINSRYWCNDGKTPGAGNACHLSCSALLQDNIADAVACAKRVVRDPQGIRAWVAWRNRCQNRDVRQYVQGCGV,64.9 °C,–,–,–

# Same assay, conditions: Homo sapiens; pH 2.82; Thermal; DSC; glycine-HCl 0.05 M; reversible: yes; structure 1LZ1; whole UniProt chain shown
Variant,Tm [°C],unfolding enthalpy (calorimetric) [kcal/mol]
MKALIVLGLVLLSVTVQGKVFERCELARTLKRLGMDGYRGISLANWMCLAKWESGYNTRATNYNAGDRSTDYGIFQINSRYWCNDGKTPGAVNACHLSCSALLQDNIADAVACAKRVVRDPQGIRAWLAWRNRCQNRDVRQYVQGCGV,67,111

# Same assay, conditions: Homo sapiens; pH 3.03; Thermal; DSC; glycine-HCl 0.05 M; reversible: yes; structure 1LZ1; whole UniProt chain shown
Variant,Tm [°C],unfolding enthalpy (calorimetric) [kcal/mol]
MKALIVLGLVLLSVTVQGKVFERCELARTLKRLGMDGYRGISLANWMCLAKWESGYNTRATNYNAGDRSTDYGIFQINSRYWCNDGKTPGAVNACHLSCSALLQDNIADAVACAKRVVRDPQGIRAWLAWRNRCQNRDVRQYVQGCGV,70.5,115

# Same assay, conditions: Homo sapiens; pH 3.25; Thermal; DSC; glycine-HCl 0.05 M; reversible: yes; structure 1LZ1; whole UniProt chain shown
Variant,Tm [°C],unfolding enthalpy (calorimetric) [kcal/mol]
MKALIVLGLVLLSVTVQGKVFERCELARTLKRLGMDGYRGISLANWMCLAKWESGYNTRATNYNAGDRSTDYGIFQINSRYWCNDGKTPGAVNACHLSCSALLQDNIADAVACAKRVVRDPQGIRAWLAWRNRCQNRDVRQYVQGCGV,74.5,121

# Same assay, conditions: Homo sapiens; pH 2.48; Thermal; DSC; glycine-HCl 0.05 M; reversible: yes; structure 1LZ1; whole UniProt chain shown
Variant,Tm [°C],unfolding enthalpy (calorimetric) [kcal/mol]
MKALIVLGLVLLSVTVQGKVFERCELARTLKRLGMDGYRGISLANWMCLAKWESGYNTRATNYNAGDRSTDYGIFQINSRYWCNDGKTPGAVNACHLSCSALLQDNIADAVACAKRVVRDPQGIRAWMAWRNRCQNRDVRQYVQGCGV,62.8,109

# Same assay, conditions: Homo sapiens; pH 3.06; Thermal; DSC; glycine-HCl 0.05 M; reversible: yes; structure 1LZ1; whole UniProt chain shown
Variant,Tm [°C],unfolding enthalpy (calorimetric) [kcal/mol]
MKALIVLGLVLLSVTVQGKVFERCELARTLKRLGMDGYRGISLANWMCLAKWESGYNTRATNYNAGDRSTDYGIFQINSRYWCNDGKTPGAVNACHLSCSALLQDNIADAVACAKRVVRDPQGIRAWMAWRNRCQNRDVRQYVQGCGV,72.8,123

# Same assay, conditions: Homo sapiens; pH 2.83; Thermal; DSC; glycine-HCl 0.05 M; reversible: yes; structure 1LZ1; whole UniProt chain shown
Variant,Tm [°C],unfolding enthalpy (calorimetric) [kcal/mol]
MKALIVLGLVLLSVTVQGKVFERCELARTLKRLGMDGYRGISLANWMCLAKWESGYNTRATNYNAGDRSTDYGIFQINSRYWCNDGKTPGALNACHLSCSALLQDNIADAVACAKRVVRDPQGIRAWVAWRNRCQNRDVRQYVQGCGV,67.5,107

# Same assay, conditions: Homo sapiens; pH 3.05; Thermal; DSC; glycine-HCl 0.05 M; reversible: yes; structure 1LZ1; whole UniProt chain shown
Variant,Tm [°C],unfolding enthalpy (calorimetric) [kcal/mol]
MKALIVLGLVLLSVTVQGKVFERCELARTLKRLGMDGYRGISLANWMCLAKWESGYNTRATNYNAGDRSTDYGIFQINSRYWCNDGKTPGALNACHLSCSALLQDNIADAVACAKRVVRDPQGIRAWVAWRNRCQNRDVRQYVQGCGV,71.6,112

# Same assay, conditions: Homo sapiens; pH 3.15; Thermal; DSC; glycine-HCl 0.05 M; reversible: yes; structure 1LZ1; whole UniProt chain shown
Variant,Tm [°C],unfolding enthalpy (calorimetric) [kcal/mol]
MKALIVLGLVLLSVTVQGKVFERCELARTLKRLGMDGYRGISLANWMCLAKWESGYNTRATNYNAGDRSTDYGIFQINSRYWCNDGKTPGALNACHLSCSALLQDNIADAVACAKRVVRDPQGIRAWVAWRNRCQNRDVRQYVQGCGV,73.3,114

# Same assay, conditions: Homo sapiens; pH 2.53; Thermal; DSC; glycine-HCl 0.05 M; reversible: yes; structure 1LZ1; whole UniProt chain shown
Variant,Tm [°C],unfolding enthalpy (calorimetric) [kcal/mol]
MKALIVLGLVLLSVTVQGKVFERCELARTLKRLGMDGYRGISLANWMCLAKWESGYNTRATNYNAGDRSTDYGIFQINSRYWCNDGKTPGAGNACHLSCSALLQDNIADAVACAKRVVRDPQGIRAWVAWRNRCQNRDVRQYVQGCGV,61.3,108

# Same assay, conditions: Homo sapiens; pH 2.95; Thermal; DSC; glycine-HCl 0.05 M; reversible: yes; structure 1LZ1; whole UniProt chain shown
Variant,Tm [°C],unfolding enthalpy (calorimetric) [kcal/mol]
MKALIVLGLVLLSVTVQGKVFERCELARTLKRLGMDGYRGISLANWMCLAKWESGYNTRATNYNAGDRSTDYGIFQINSRYWCNDGKTPGAGNACHLSCSALLQDNIADAVACAKRVVRDPQGIRAWVAWRNRCQNRDVRQYVQGCGV,68.7,121

# Same assay, conditions: Homo sapiens; pH 3.09; Thermal; DSC; glycine-HCl 0.05 M; reversible: yes; structure 1LZ1; whole UniProt chain shown
Variant,Tm [°C],unfolding enthalpy (calorimetric) [kcal/mol]
MKALIVLGLVLLSVTVQGKVFERCELARTLKRLGMDGYRGISLANWMCLAKWESGYNTRATNYNAGDRSTDYGIFQINSRYWCNDGKTPGAGNACHLSCSALLQDNIADAVACAKRVVRDPQGIRAWVAWRNRCQNRDVRQYVQGCGV,70.8,124

# Same assay, conditions: Homo sapiens; pH 3.3; Thermal; DSC; glycine-HCl 0.05 M; reversible: yes; structure 1LZ1; whole UniProt chain shown
Variant,Tm [°C],unfolding enthalpy (calorimetric) [kcal/mol]
MKALIVLGLVLLSVTVQGKVFERCELARTLKRLGMDGYRGISLANWMCLAKWESGYNTRATNYNAGDRSTDYGIFQINSRYWCNDGKTPGAGNACHLSCSALLQDNIADAVACAKRVVRDPQGIRAWVAWRNRCQNRDVRQYVQGCGV,74,129
